Data on ten substances can be found in publication PMC7991749.

The test system of data set [1] is ctXPD (Chaetomium thermophilum). As to the kind of experiment: photo-cross-linking. To be noted: 5 mM Mg2+, FA: 20 mM HEPES pH 7.5, 30 mM KCl, 5 mM MgCl2, 1 mM TCEP, 10 nM DNA, photo-cross-linking: 20 mM HEPES pH 7.5, 50 mM KCl.
The subject of data set [2] is ctXPD;ctp44 (Chaetomium thermophilum;Chaetomium thermophilum). Nature of the data set: photo-cross-linking. As to conditions: 5 mM Mg2+, 2.5 mM ATP, FA: 20 mM HEPES pH 7.5, 30 mM KCl, 5 mM MgCl2, 1 mM TCEP, 10 nM DNA, room temperature, photo-cross-linking: 20 mM HEPES pH 7.5, 50 mM KCl.
Data set [3] shares this test system. As to the kind of experiment: fluorescence anisotropy. To be noted: FA: 20 mM HEPES pH 7.5, 30 mM KCl, 5 mM MgCl2, 1 mM TCEP, 10 nM DNA, room temperature, photo-cross-linking: 20 mM HEPES pH 7.5, 50 mM KCl. Background: In fluorescence polarisation assays a small probe gives low polarisation when free and higher when bound to something large.
Data set [4] concerns the target ctXPD (XPD helicase from Chaetomium thermophilum) (Chaetomium thermophilum).

“AAGCCTATGCCTACAGCATCCAGGGCGACGGTGCCGAGGATGACGATGAGCGCA / TGCGCTCATCGTCATCCTCGGCACCGTCGCCCTGGATG [fs-Fab(g)-dC 54/38]” displayed a binding signal (fold vs same probe without ATP) in data set [1] (2.5 mM ATP, no ctp44, position 26 of strand 1 (B) = Fab(g)-dC, room temperature) of 2.1. Also, the binding signal (fold vs same mixture without ATP) was found to be 1.8 in data set [2] (ctXPD adduct, position 26 of strand 1 (B) = Fab(g)-dC) and 2 in data set [2] (ctp44 adduct, position 26 of strand 1 (B) = Fab(g)-dC). In data set [1] (no ATP, no ctp44, Fap-dC at position 26 of strand 1 (position inferred from parallel oligos), room temperature), “AAGCCTATGCCTACAGCATCCAGGGCGACGGTGCCGAGGATGACGATGAGCGCA / TGCGCTCATCGTCATCCTCGGCACCGTCGCCCTGGATG [fs-Fap-dC 54/38]” displayed a binding signal (relative cross-linking (reference)) of 1. Also, the binding signal (fold vs same mixture without ATP) in data set [2] (ctXPD adduct, Fap-dC at position 26 of strand 1 (position inferred from parallel oligos)) came to 2.6; in data set [2] (ctp44 adduct, Fap-dC at position 26 of strand 1 (position inferred from parallel oligos)), 2. In data set [1] (position 26 (B) = Fab(g)-dC, room temperature, 5 mM MgCl2, 1 mM …), “AAGCCTATGCCTACAGCATCCAGGGCGACGGTGCCGAGGATGACGATGAGCGCA [ss-Fab(g)-dC 54]” registered a binding signal (fold cross-linking vs ds probe) of 3. In turn, “AAGCCTATGCCTACAGCATCCAGGGCGACGGTGCCGAGGATGACGATGAGCGCA [ss-Fap-dC 54]” registered a binding signal (fold cross-linking vs ds probe) in data set [1] (Fap-dC at position 26 (position inferred from parallel oligos), room …) of 3. In the case of “ATGCCTACAGCAAGCCTATGCCTACAGCATCCAGGGCGACGGTGCCGAG [ss-Fab(g)-dC 49]”, the K half in data set [3] (5 mM Mg2+, 2 mM ATP, EC50, position 37 (B) = Fab(g)-dC) turned out to be 268 nM. Consider “ATGCCTACAGCAAGCCTATGCCTACAGCATCCAGGGCGACGGTGCCGAG [ss-Fap-dC 49]”, for which the K half was 307 nM in data set [3] (5 mM Mg2+, 2 mM ATP, EC50, Fap-dC at position 37 (position inferred from parallel oligos)) and 200 nM in data set [3] (Fap-dC at position 37 (position inferred from parallel oligos)). In data set [3] (none), “ATGCCTACAGCAAGCCTATGCCTACAGCATCCAGGGCGACGGTGCCGAG [ss-um 49]” gave a K half of 500 nM.

Consider “ATGCCTACAGCAAGCCTATGCCTACAGCATCCAGGGNGACGGTGCCGAG [ss-nAnt 49 (ss-Ant)]”, for which the K half in data set [3] (position 37 (N; printed A) = nAnt, N-[6-(9-anthracenylcarbamoyl)hexanoyl]-3-amino-1,2-propanediol, non-nucleoside lesion) was 63 nM. Regarding “ATGCCTACAGCAAGCCTATGCCTACAGCATCCAGGGNGACGGTGCCGAG [ss-nFlu 49]”, the K half in data set [3] (position 37 (N; printed F) = nFlu lesion) amounted to 3 nM. Take ctp44 (1-285) (domain or fragment): the ATPase activity of ctXPD (NADH-coupled assay, 37°C): activation by 4 to 1000 nM ctp44 titrated onto 250 nM ctXPD in the presence of 1 μM ssDNA in data set [4] amounted to 82 nM.
